# B1: GpH7-A5/GpH7-B3 variant K334_01G/GpL16-k0 (antibody, human IgG1, kappa)
# heavy 1: not shown
# heavy 2: not shown
# light: DIVMTQSPLSLPVTPGEPASISCQASESLVHSNRNTYLHWYLQKPGQSPQLLIYKVSNRFSGVPDRFSGSGSGTDFTLKISRVEAEDVGVYYCSQNTHVPPTFGQGTKVEIERTVAAPSVFIFPPSDEQLKSGTASVVCLLNNFYPREAKVQWKVDNALQSGNSQESVTEQDSKDSTYSLSSTLTLSKADYEKHKVYACEVTHQGLSSPVTKSFNRGEC
# notes: heterodimerized IgG1, mutation in one H chain only; also called He Ab
# B2: GpH7-A5/GpH7-B3 variant I332_01G/GpL16-k0 (antibody, human IgG1, kappa)
# heavy 1: not shown
# heavy 2: not shown
# light: B1 light
# notes: as for B1
# B3: GpH7-A5/GpH7-B3 variant I336_03V/GpL16-k0 (antibody, human IgG1, kappa)
# heavy 1: not shown
# heavy 2: not shown
# light: B1 light
# notes: as for B1
# B4: GpH7-A5/GpH7-B3 variant I332_13S/GpL16-k0 (antibody, human IgG1, kappa)
# heavy 1: not shown
# heavy 2: not shown
# light: B1 light
# notes: as for B1
# B5: GpH7-A5/GpH7-B3 variant I332_15Y/GpL16-k0 (antibody, human IgG1, kappa)
# heavy 1: not shown
# heavy 2: not shown
# light: B1 light
# notes: as for B1
# B6: GpH7-A5/GpH7-B3 variant I332_10E/GpL16-k0 (antibody, human IgG1, kappa)
# heavy 1: not shown
# heavy 2: not shown
# light: B1 light
# notes: as for B1
# B7: GpH7-A5/GpH7-B3 variant H268_09D/GpL16-k0 (antibody, human IgG1, kappa)
# heavy 1: not shown
# heavy 2: not shown
# light: B1 light
# notes: as for B1
# B8: GpH7-A5/GpH7-B3 variant H268_10E/GpL16-k0 (antibody, human IgG1, kappa)
# heavy 1: not shown
# heavy 2: not shown
# light: B1 light
# notes: as for B1
# B9: GpH7-A5/GpH7-B3 variant A330_04F/GpL16-k0 (antibody, human IgG1, kappa)
# heavy 1: not shown
# heavy 2: not shown
# light: B1 light
# notes: as for B1
# B10: GpH7-A5/GpH7-B3 variant A330_08L/GpL16-k0 (antibody, human IgG1, kappa)
# heavy 1: not shown
# heavy 2: not shown
# light: B1 light
# notes: as for B1
# B11: GpH7-A5/GpH7-B3 variant I332_09D/GpL16-k0 (antibody, human IgG1, kappa)
# heavy 1: not shown
# heavy 2: not shown
# light: B1 light
# notes: as for B1
# B12: GpH7-A5/GpH7-B3 variant A330_20W/GpL16-k0 (antibody, human IgG1, kappa)
# heavy 1: not shown
# heavy 2: not shown
# light: B1 light
# notes: as for B1
# B13: GpH7-A5/GpH7-B3 variant I336_09D/GpL16-k0 (antibody, human IgG1, kappa)
# heavy 1: not shown
# heavy 2: not shown
# light: B1 light
# notes: as for B1
# B14: GpH7-A5/GpH7-B3 variant I332_19Q/GpL16-k0 (antibody, human IgG1, kappa)
# heavy 1: not shown
# heavy 2: not shown
# light: B1 light
# notes: as for B1
# B15: GpH7-A5/GpH7-B3 variant I332_14T/GpL16-k0 (antibody, human IgG1, kappa)
# heavy 1: not shown
# heavy 2: not shown
# light: B1 light
# notes: as for B1
# B16: GpH7-A5/GpH7-B3 variant I336_06M/GpL16-k0 (antibody, human IgG1, kappa)
# heavy 1: not shown
# heavy 2: not shown
# light: B1 light
# notes: as for B1
# B17: GpH7-A5/GpH7-B3 variant E333_16H/GpL16-k0 (antibody, human IgG1, kappa)
# heavy 1: not shown
# heavy 2: not shown
# light: B1 light
# notes: as for B1
# B18: GpH7-A5/GpH7-B3 variant I332_02A/GpL16-k0 (antibody, human IgG1, kappa)
# heavy 1: not shown
# heavy 2: not shown
# light: B1 light
# notes: as for B1
# B19: GpH7-A5/GpH7-B3 variant I336_02A/GpL16-k0 (antibody, human IgG1, kappa)
# heavy 1: not shown
# heavy 2: not shown
# light: B1 light
# notes: as for B1
# B20: GpH7-A5/GpH7-B3 variant H268_13S/GpL16-k0 (antibody, human IgG1, kappa)
# heavy 1: not shown
# heavy 2: not shown
# light: B1 light
# notes: as for B1
# B21: GpH7-B3 variant K334_04F/GpL16-k0 (antibody, human IgG1, kappa)
# heavy: not shown
# light: B1 light
# notes: homodimerized IgG1, mutation in both H chains; also called Ho Ab
# B22: GpH7-B3 variant K334_16H/GpL16-k0 (antibody, human IgG1, kappa)
# heavy: not shown
# light: B1 light
# notes: as for B21
# B23: GpH7-B3 variant S267_09D/GpL16-k0 (antibody, human IgG1, kappa)
# heavy: not shown
# light: B1 light
# notes: as for B21
# B24: GpH7-B3 variant S337_09D/GpL16-k0 (antibody, human IgG1, kappa)
# heavy: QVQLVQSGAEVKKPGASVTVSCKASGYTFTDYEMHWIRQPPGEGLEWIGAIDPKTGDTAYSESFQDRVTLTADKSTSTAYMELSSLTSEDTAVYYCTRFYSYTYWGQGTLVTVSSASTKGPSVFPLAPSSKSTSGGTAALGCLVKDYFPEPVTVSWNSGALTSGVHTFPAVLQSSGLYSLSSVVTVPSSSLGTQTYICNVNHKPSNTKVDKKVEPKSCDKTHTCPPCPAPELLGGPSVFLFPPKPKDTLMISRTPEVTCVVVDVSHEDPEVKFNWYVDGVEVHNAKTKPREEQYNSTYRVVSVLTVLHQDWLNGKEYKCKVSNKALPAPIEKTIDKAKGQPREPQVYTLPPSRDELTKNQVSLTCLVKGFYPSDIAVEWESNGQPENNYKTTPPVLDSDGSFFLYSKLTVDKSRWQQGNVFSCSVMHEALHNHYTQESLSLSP
# light: B1 light
# notes: as for B21
# B25: GpH7-B3 variant K334_18N/GpL16-k0 (antibody, human IgG1, kappa)
# heavy: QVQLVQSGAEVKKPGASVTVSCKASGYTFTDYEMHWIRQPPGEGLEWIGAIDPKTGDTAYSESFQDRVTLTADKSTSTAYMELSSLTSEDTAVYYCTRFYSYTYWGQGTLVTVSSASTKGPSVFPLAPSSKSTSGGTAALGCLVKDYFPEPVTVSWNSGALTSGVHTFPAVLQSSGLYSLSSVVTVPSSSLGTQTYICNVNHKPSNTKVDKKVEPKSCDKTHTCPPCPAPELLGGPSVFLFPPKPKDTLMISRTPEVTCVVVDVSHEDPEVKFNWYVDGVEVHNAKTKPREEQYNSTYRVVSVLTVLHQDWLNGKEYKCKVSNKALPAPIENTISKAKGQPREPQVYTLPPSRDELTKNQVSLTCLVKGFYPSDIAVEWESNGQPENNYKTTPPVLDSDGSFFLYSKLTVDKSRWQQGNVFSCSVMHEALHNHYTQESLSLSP
# light: B1 light
# notes: as for B21
# B26: GpH7-B3 variant K334_19Q/GpL16-k0 (antibody, human IgG1, kappa)
# heavy: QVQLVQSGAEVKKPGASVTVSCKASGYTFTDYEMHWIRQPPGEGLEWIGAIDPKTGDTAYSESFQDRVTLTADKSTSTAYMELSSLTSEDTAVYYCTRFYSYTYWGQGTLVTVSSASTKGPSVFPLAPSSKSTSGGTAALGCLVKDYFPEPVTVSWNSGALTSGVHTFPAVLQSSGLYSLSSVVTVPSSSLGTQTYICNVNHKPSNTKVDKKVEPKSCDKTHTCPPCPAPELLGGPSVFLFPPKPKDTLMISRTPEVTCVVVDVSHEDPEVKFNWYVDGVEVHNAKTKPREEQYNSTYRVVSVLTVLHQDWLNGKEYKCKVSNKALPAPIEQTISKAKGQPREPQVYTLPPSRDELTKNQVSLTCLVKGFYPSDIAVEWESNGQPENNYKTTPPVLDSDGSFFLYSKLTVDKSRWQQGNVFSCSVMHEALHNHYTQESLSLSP
# light: B1 light
# notes: as for B21
# B27: GpH7-B3 variant K334_10E/GpL16-k0 (antibody, human IgG1, kappa)
# heavy: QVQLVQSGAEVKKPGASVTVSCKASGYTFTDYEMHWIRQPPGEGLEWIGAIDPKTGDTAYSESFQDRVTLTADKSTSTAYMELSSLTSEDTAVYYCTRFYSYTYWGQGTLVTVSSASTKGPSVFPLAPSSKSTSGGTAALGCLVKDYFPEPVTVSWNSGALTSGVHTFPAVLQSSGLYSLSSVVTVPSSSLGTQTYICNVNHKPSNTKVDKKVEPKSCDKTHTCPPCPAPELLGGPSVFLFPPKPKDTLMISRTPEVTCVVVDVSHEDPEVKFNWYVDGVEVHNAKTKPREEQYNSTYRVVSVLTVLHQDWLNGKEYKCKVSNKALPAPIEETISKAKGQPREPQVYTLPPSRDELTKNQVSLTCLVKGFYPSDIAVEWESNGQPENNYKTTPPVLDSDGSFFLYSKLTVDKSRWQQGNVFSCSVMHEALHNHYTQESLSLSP
# light: B1 light
# notes: as for B21
# B28: GpH7-B3 variant S267_02A/GpL16-k0 (antibody, human IgG1, kappa)
# heavy: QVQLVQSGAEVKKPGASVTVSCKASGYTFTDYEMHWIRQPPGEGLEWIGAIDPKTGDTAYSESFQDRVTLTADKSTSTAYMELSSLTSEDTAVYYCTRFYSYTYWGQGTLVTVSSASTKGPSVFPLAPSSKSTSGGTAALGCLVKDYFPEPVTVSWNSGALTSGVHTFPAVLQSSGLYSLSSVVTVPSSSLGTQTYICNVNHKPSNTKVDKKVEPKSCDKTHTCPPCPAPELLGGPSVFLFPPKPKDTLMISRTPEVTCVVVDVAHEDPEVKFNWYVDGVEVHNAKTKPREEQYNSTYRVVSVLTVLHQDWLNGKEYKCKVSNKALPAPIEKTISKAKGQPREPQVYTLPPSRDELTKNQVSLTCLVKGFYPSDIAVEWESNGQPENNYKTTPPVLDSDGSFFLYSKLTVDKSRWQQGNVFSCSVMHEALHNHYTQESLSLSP
# light: B1 light
# notes: as for B21
# B29: GpH7-B3 variant K334_09D/GpL16-k0 (antibody, human IgG1, kappa)
# heavy: not shown
# light: B1 light
# notes: as for B21
# B30: GpH7-B3 variant K334_13S/GpL16-k0 (antibody, human IgG1, kappa)
# heavy: not shown
# light: B1 light
# notes: as for B21
# B31: GpH7-B3 variant S239_09D/GpL16-k0 (antibody, human IgG1, kappa)
# heavy: not shown
# light: B1 light
# notes: as for B21
# B32: GpH7-B3 variant T335_07I/GpL16-k0 (antibody, human IgG1, kappa)
# heavy: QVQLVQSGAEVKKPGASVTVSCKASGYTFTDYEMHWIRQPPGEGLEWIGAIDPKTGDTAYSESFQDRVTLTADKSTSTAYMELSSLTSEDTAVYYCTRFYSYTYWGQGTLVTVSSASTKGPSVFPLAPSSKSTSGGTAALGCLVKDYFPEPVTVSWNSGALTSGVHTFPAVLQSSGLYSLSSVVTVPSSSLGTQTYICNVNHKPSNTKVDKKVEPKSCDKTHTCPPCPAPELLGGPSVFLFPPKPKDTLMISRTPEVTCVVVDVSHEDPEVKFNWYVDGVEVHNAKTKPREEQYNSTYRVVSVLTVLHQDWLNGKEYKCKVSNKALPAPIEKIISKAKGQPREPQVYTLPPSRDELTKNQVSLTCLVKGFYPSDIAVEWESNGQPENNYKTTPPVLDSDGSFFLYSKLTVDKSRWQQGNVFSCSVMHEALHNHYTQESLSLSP
# light: B1 light
# notes: as for B21
# B33: GpH7-B3 variant K334_07I/GpL16-k0 (antibody, human IgG1, kappa)
# heavy: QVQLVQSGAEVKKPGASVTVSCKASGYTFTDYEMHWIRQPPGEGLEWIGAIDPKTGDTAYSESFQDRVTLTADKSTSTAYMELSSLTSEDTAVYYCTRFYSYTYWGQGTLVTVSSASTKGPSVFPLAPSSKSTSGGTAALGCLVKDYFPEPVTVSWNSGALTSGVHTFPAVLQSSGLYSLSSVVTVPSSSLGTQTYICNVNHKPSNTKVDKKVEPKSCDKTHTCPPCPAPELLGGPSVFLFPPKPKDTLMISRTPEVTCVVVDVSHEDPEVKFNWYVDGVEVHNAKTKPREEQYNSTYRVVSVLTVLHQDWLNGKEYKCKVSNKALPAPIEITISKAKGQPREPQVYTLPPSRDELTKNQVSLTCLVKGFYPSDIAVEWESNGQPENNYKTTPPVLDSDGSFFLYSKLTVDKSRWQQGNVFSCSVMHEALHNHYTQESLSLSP
# light: B1 light
# notes: as for B21
# B34: GpH7-B3 variant S298_14T/GpL16-k0 (antibody, human IgG1, kappa)
# heavy: not shown
# light: B1 light
# notes: as for B21
# B35: GpH7-B3 variant Q295_10E/GpL16-k0 (antibody, human IgG1, kappa)
# heavy: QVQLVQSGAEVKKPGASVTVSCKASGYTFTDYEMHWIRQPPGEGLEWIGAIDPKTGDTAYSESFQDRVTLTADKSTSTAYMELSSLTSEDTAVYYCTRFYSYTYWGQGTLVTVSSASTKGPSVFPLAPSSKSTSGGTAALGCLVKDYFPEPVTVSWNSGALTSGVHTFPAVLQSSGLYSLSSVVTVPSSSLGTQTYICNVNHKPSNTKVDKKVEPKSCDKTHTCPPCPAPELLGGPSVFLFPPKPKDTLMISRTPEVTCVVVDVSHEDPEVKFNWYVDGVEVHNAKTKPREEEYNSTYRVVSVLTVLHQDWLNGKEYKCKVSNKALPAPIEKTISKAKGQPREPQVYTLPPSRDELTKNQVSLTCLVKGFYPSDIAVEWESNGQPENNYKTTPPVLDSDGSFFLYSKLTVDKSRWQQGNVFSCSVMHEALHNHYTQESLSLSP
# light: B1 light
# notes: as for B21
# B36: GpH7-B3 variant K334_05P/GpL16-k0 (antibody, human IgG1, kappa)
# heavy: not shown
# light: B1 light
# notes: as for B21
# B37: GpH7-B3 variant T335_10E/GpL16-k0 (antibody, human IgG1, kappa)
# heavy: not shown
# light: B1 light
# notes: as for B21
# B38: GpH7-B3 variant K334_14T/GpL16-k0 (antibody, human IgG1, kappa)
# heavy: not shown
# light: B1 light
# notes: as for B21
# B39: GpH7-B3 variant S337_18N/GpL16-k0 (antibody, human IgG1, kappa)
# heavy: not shown
# light: B1 light
# notes: as for B21
# B40: GpH7-B3 variant Q295_14T/GpL16-k0 (antibody, human IgG1, kappa)
# heavy: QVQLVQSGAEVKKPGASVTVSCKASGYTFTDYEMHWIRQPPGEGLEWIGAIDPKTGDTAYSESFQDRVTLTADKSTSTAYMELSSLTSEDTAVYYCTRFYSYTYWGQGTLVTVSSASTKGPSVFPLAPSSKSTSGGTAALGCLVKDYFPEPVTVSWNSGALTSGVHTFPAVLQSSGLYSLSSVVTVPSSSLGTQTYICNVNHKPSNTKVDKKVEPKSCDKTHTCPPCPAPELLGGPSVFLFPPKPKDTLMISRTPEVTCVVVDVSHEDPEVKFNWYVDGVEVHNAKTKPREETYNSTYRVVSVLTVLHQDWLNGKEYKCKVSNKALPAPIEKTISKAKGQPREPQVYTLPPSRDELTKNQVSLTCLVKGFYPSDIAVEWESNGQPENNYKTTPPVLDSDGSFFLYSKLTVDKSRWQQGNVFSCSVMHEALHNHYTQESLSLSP
# light: B1 light
# notes: as for B21
# B41: GpH7-B3 variant S337_10E/GpL16-k0 (antibody, human IgG1, kappa)
# heavy: not shown
# light: B1 light
# notes: as for B21
# B42: GpH7-B3 variant K334_15Y/GpL16-k0 (antibody, human IgG1, kappa)
# heavy: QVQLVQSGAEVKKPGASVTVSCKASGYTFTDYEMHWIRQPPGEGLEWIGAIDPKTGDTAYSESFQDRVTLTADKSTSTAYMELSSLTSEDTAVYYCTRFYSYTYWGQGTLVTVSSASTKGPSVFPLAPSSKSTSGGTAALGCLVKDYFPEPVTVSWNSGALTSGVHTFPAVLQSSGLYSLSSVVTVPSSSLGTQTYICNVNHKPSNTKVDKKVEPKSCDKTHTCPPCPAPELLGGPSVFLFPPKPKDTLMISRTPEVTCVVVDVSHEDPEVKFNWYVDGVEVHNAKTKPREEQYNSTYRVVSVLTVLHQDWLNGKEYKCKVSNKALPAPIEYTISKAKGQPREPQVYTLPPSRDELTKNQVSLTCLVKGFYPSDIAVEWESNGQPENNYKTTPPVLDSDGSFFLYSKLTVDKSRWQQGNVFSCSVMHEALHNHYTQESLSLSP
# light: B1 light
# notes: as for B21
# B43: GpH7-B3 variant K334_08L/GpL16-k0 (antibody, human IgG1, kappa)
# heavy: not shown
# light: B1 light
# notes: as for B21
# B44: GpH7-B3 variant Q295_02A/GpL16-k0 (antibody, human IgG1, kappa)
# heavy: not shown
# light: B1 light
# notes: as for B21
# Target: T1, FcγRIIIa extracellular domain with C-terminal His tag (human, UniProt P08637 17-208)
# T1 construct: extracellular domain; also called FcgRIIIa; 3a
# T1 sequence (P08637 17-208): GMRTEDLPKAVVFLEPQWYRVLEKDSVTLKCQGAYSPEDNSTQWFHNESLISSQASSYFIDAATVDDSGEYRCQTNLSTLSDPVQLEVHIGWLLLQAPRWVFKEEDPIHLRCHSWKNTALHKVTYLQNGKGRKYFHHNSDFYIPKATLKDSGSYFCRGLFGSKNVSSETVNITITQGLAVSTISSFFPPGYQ
# Assay: SPR, relative to GpH7-A5/GpH7-B3/GpL16-k0
row,He/Con_3a,Binder
1,121 % of control (=100),B1
2,111 % of control (=100),B2
3,112 % of control (=100),B3
4,104 % of control (=100),B4
5,101 % of control (=100),B5
6,233 % of control (=100),B6
7,197 % of control (=100),B7
8,186 % of control (=100),B8
9,147 % of control (=100),B9
10,124 % of control (=100),B10
11,207 % of control (=100),B11
12,104 % of control (=100),B12
13,106 % of control (=100),B13
14,110 % of control (=100),B14
15,120 % of control (=100),B15
16,109 % of control (=100),B16
17,103 % of control (=100),B17
18,112 % of control (=100),B18
19,111 % of control (=100),B19
20,122 % of control (=100),B20

# Target: T1, FcγRIIIa extracellular domain with …
# Assay: SPR, relative to GpH7-B3/GpL16-k0
row,Ho/Con_3a,Binder
1,168 % of control (=100),B21
2,153 % of control (=100),B22
3,160 % of control (=100),B23
4,106 % of control (=100),B24
5,156 % of control (=100),B25
6,150 % of control (=100),B26
7,206 % of control (=100),B27
8,145 % of control (=100),B28
9,150 % of control (=100),B29
10,153 % of control (=100),B30
11,192 % of control (=100),B31
12,107 % of control (=100),B32
13,180 % of control (=100),B33
14,107 % of control (=100),B34
15,111 % of control (=100),B35
16,165 % of control (=100),B36
17,102 % of control (=100),B37
18,163 % of control (=100),B38
19,102 % of control (=100),B39
20,108 % of control (=100),B40
21,100 % of control (=100),B41
22,181 % of control (=100),B42
23,178 % of control (=100),B43
24,108 % of control (=100),B44

# From patent publication US20180155451A1 (published 2018)
